Test results published in paper PMC10388305, “Synthesis and Evaluation of a Monomethyl Auristatin E—Integrin αvβ6 Binding Peptide–Drug Conjugate for Tumor Targeted Drug Delivery” (Journal of Medicinal Chemistry, 2023).
Like-named read-outs stand apart in the source and are kept apart here.

Experiment: Biodistribution, paired DX3puroβ6/DX3puro xenograft tumor mouse model
Format: in vivo, mice
Settings: female, athymic nude, iv, total radioactivity, γ-counter, mean ± SD; for tissue uptake at 4 h / tissue uptake at 24 h / tissue uptake at 48 h: i.v.
Procedure: The biodistribution of [^64Cu]PDC-1 confirmed the αvβ6-selective tumor accumulation, with 4.46 ± 0.91% ID/g in the DX3puroβ6 (+) tumor at 4 h vs 0.56 ± 0.12% ID/g in the DX3puro (−) tumor (ratio = 8:1; Figure 6A, Table S3). […] For the BxPC-3 tumor, the uptake went from 4.61 ± 1.44% ID/g at 4 h to 3.73 ± 0.44 and 2.93 ± 0.80% ID/g, at 24 and 48 h, respectively (4 to 48 h: P = 0.054; Figure 6). […] Clearance from the blood was rapid, resulting in αvβ6 (+) tumor/blood ratios of ≥32:1 at 4 h (Table S5). [^64Cu]PDC-1 primarily cleared through the kidneys, from 50 to 64% ID/g at 4 h to ≤25% ID/g at 48 h (Figure 6). […] Accumulation in the liver remained steady between 1.5 and 2.2% ID/g at 4 to 48 h, and uptake in other organs such as muscle (≤0.9% ID/g) and pancreas (≤0.5% ID/g) was low at all time points (Figure 6).
All animal procedures conformed to the Animal Welfare Act and were approved by the University of California Davis Institutional Animal Care and Use Committee. All mice used for in vivo work were female athymic nude mice (6–8 weeks old) purchased from Charles River Laboratories (Wilmington, MA). For PET imaging and biodistribution studies, female athymic nude mice (6–8 weeks old) were injected subcutaneously with 3 × 10^6 DX3puro and 3 × 10^6 DX3puroβ6 cells in serum free DMEM on the right and left flank, respectively, or with 5 × 10^6 BxPC-3 cells in serum free RPMI 1640/Matrigel (1/1 v/v). Studies commenced once tumors reached a maximum diameter of ∼0.5 cm, approximately 3 weeks after inoculation. Food and water were available ad libitum. [^64Cu]PDC-1 was formulated in isotonic 0.9% saline to pH = 7.2 and administered intravenously (i.v.) via a catheter into the tail vein.
Aliquots of the formulated [^64Cu]PDC-1 in isotonic 0.9% saline (4.81–5.74 MBq, 1.7–2.1 μg, 0.26–0.31 nmol, 100 μL, pH 7.2) were injected i.v. as described above. Following the conscious uptake period, the mice were anesthetized (5% isoflurane), euthanized, and dissected (n ≥ 3/model/time point [4, 24, and 48 h]; the 48 h time point also included the imaging animals sacrificed after the PET scans). Tissues were collected, washed, weighed, and radioactivity measured in a γ-counter. Calibrated, decay-corrected radioactivity was expressed as the percentage of injected dose per gram of tissue (% ID/g). Data are reported as mean ± SD. The mean weights and standard deviation of the DX3puroβ6/DX3puro paired tumor model biodistribution mice were 24.3 ± 1.4 g at 4 h, 28.2 ± 2.9 g at 24 h, and 27.7 ± 2.6 g at 48 h. The mean weights and standard deviation of the BxPC-3 tumor model biodistribution mice were 25.1 ± 1.9 g at 4 h, 27.0 ± 1.1 g at 24 h and 27.1 ± 3.2 g at 48 h. For in vivo blocking studies, DOTA-2 (50 mg/kg, 205 nmol, 1.4 mg in 100 μL 0.9% saline) was injected i.v. into two animals/tumor model 10 min prior to [^64Cu]PDC-1. The animals were sacrificed after 4 h, tissues collected, washed, weighed, and radioactivity measured in a γ-counter. The mean weights and standard deviation for the blocking mice were 24.6 ± 0 and 27.9 ± 0.3 g for the DX3puroβ6/DX3puro paired and BxPC-3 tumor models, respectively.
Biodistribution data of [64Cu]PDC-1 in paired DX3puroβ6/DX3puro tumor model.
Table S3. Biodistribution of [ 64Cu]PDC-1 in mice bearing paired DX3puroβ6/DX3puro xenograft tumors.
Tissue uptake is expressed as the mean of the percentage of injected dose per gram of tissue ± standard
deviation (n = 4/ time point; n = 9 at 48 h); an = 3, bn = 8, cn = 7.

## CC[C@H](C)[C@@H]([C@@H](CC(=O)N1CCC[C@H]1[C@H](OC)[C@@H](C)C(=O)N[C@H](C)[C@@H](O)c1ccccc1)OC)N(C)C(=O)[C@@H](NC(=O)[C@H](C(C)C)N(C)C(=O)OCc1ccc(NC(=O)[C@H](CCCNC(N)=O)NC(=O)[C@@H](NC(=O)CCOCCOCCNC(=O)CCN2C(=O)CC(SC[C@H](NC(=O)CN3CCN(CC(=O)O)CCN(CC(=O)O)CCN(CC(=O)O)CC3)C(=O)NCCOCCOCCOCCOCCOCCOCCOCCOCCOCCOCCOCCOCCOCCOCCOCCOCCOCCOCCOCCOCCOCCOCCOCCOCCOCCOCCOCCOCCC(=O)N[C@@H](CC(N)=O)C(=O)N[C@@H](C)C(=O)N[C@H](C(=O)N3CCC[C@H]3C(=O)N[C@@H](CC(N)=O)C(=O)N[C@@H](CC(C)C)C(=O)N[C@@H](CCCNC(=N)N)C(=O)NCC(=O)N[C@@H](CC(=O)O)C(=O)N[C@@H](CC(C)C)C(=O)N[C@@H](CCC(N)=O)C(=O)N[C@H](C(=O)N[C@@H](CC(C)C)C(=O)N[C@@H](C)C(=O)N[C@@H](CCC(N)=O)C(=O)N[C@@H](CCCNC(=N)N)C(=O)N[C@H](C(=O)N[C@@H](C)C(=O)N[C@@H](CCCNC(=N)N)C(=O)N[C@H](C(=O)NCCOCCOCCOCCOCCOCCOCCOCCOCCOCCOCCOCCOCCOCCOCCOCCOCCOCCOCCOCCOCCOCCOCCOCCOCCOCCOCCOCCOCCC(N)=O)[C@@H](C)O)C(C)C)C(C)C)C(C)C)C2=O)C(C)C)cc1)C(C)C (stereo partly drawn) [[^64Cu]PDC-1, metal not drawn]
DX3puro (αvβ6 −) tumor, 4 h p.i., n = 4, read-out: DX3puro (αvβ6 −) tumor uptake
  tissue uptake at 4 h: 0.56 ± 0.12 %ID/g
DX3puro (αvβ6 −) tumor, 24 h p.i., n = 3, read-out: DX3puro (αvβ6 −) tumor uptake
  tissue uptake at 24 h: 1.03 ± 0.12 %ID/g
DX3puro (αvβ6 −) tumor, 48 h p.i., n = 8, read-out: DX3puro (αvβ6 −) tumor uptake
  tissue uptake at 48 h: 0.74 ± 0.2 %ID/g
DX3puroβ6 (αvβ6 +) tumor, 4 h p.i., n = 4, read-out: DX3puroβ6 (αvβ6 +) tumor uptake
  tissue uptake at 4 h: 4.46 ± 0.91 %ID/g
DX3puroβ6 (αvβ6 +) tumor, 24 h p.i., n = 4, read-out: DX3puroβ6 (αvβ6 +) tumor uptake
  tissue uptake at 24 h: 3.39 ± 0.56 %ID/g
DX3puroβ6 (αvβ6 +) tumor, 48 h p.i., n = 9, read-out: DX3puroβ6 (αvβ6 +) tumor uptake
  tissue uptake at 48 h: 2.53 ± 0.37 %ID/g
bladder, 4 h p.i., n = 4, read-out: Bladder uptake
  tissue uptake at 4 h: 2.12 ± 0.62 %ID/g
bladder, 24 h p.i., n = 4, read-out: Bladder uptake
  tissue uptake at 24 h: 1.65 ± 0.44 %ID/g
bladder, 48 h p.i., n = 9, read-out: Bladder uptake
  tissue uptake at 48 h: 1.66 ± 0.28 %ID/g
blood, 4 h p.i., n = 4, read-out: Blood uptake
  tissue uptake at 4 h: 0.14 ± 0.02 %ID/g
blood, 24 h p.i., n = 4, read-out: Blood uptake
  tissue uptake at 24 h: 0.29 ± 0.03 %ID/g
blood, 48 h p.i., n = 9, read-out: Blood uptake
  tissue uptake at 48 h: 0.34 ± 0.09 %ID/g
bone, 4 h p.i., n = 4, read-out: Bone uptake
  tissue uptake at 4 h: 0.43 ± 0.18 %ID/g
bone, 24 h p.i., n = 4, read-out: Bone uptake
  tissue uptake at 24 h: 0.38 ± 0.08 %ID/g
bone, 48 h p.i., n = 9, read-out: Bone uptake
  tissue uptake at 48 h: 0.33 ± 0.1 %ID/g
brain, 4 h p.i., n = 4, read-out: Brain uptake
  tissue uptake at 4 h: 0.04 ± 0.01 %ID/g
brain, 24 h p.i., n = 4, read-out: Brain uptake
  tissue uptake at 24 h: 0.07 ± 0.01 %ID/g
brain, 48 h p.i., n = 9, read-out: Brain uptake
  tissue uptake at 48 h: 0.09 ± 0.03 %ID/g
Gall bladder, 4 h p.i., n = 4, read-out: Gall bladder uptake
  tissue uptake at 4 h: 3.64 ± 0.79 %ID/g
Gall bladder, 24 h p.i., n = 4, read-out: Gall bladder uptake
  tissue uptake at 24 h: 3.16 ± 0.49 %ID/g
Gall bladder, 48 h p.i., n = 9, read-out: Gall bladder uptake
  tissue uptake at 48 h: 1.42 ± 0.63 %ID/g
heart, 4 h p.i., n = 4, read-out: Heart uptake
  tissue uptake at 4 h: 0.82 ± 0.17 %ID/g
heart, 24 h p.i., n = 4, read-out: Heart uptake
  tissue uptake at 24 h: 0.84 ± 0.15 %ID/g
heart, 48 h p.i., n = 9, read-out: Heart uptake
  tissue uptake at 48 h: 0.85 ± 0.18 %ID/g
kidney, 4 h p.i., n = 4, read-out: Kidney uptake
  tissue uptake at 4 h: 63.9 ± 12.5 %ID/g
kidney, 24 h p.i., n = 4, read-out: Kidney uptake
  tissue uptake at 24 h: 41.2 ± 4.47 %ID/g
kidney, 48 h p.i., n = 9, read-out: Kidney uptake
  tissue uptake at 48 h: 22.9 ± 5.48 %ID/g
Large intestines, 4 h p.i., n = 4, read-out: Lg. Intestines uptake
  tissue uptake at 4 h: 6.25 ± 0.74 %ID/g
Large intestines, 24 h p.i., n = 4, read-out: Lg. Intestines uptake
  tissue uptake at 24 h: 3.98 ± 0.83 %ID/g
Large intestines, 48 h p.i., n = 9, read-out: Lg. Intestines uptake
  tissue uptake at 48 h: 3.04 ± 0.73 %ID/g
liver, 4 h p.i., n = 4, read-out: Liver uptake
  tissue uptake at 4 h: 1.34 ± 0.29 %ID/g
liver, 24 h p.i., n = 4, read-out: Liver uptake
  tissue uptake at 24 h: 2.25 ± 0.59 %ID/g
liver, 48 h p.i., n = 9, read-out: Liver uptake
  tissue uptake at 48 h: 2.15 ± 0.62 %ID/g
lung, 4 h p.i., n = 4, read-out: Lung uptake
  tissue uptake at 4 h: 3.08 ± 0.78 %ID/g
lung, 24 h p.i., n = 4, read-out: Lung uptake
  tissue uptake at 24 h: 2.19 ± 0.42 %ID/g
lung, 48 h p.i., n = 9, read-out: Lung uptake
  tissue uptake at 48 h: 1.71 ± 0.44 %ID/g
muscle, 4 h p.i., n = 4, read-out: Muscle uptake
  tissue uptake at 4 h: 0.89 ± 0.11 %ID/g
muscle, 24 h p.i., n = 4, read-out: Muscle uptake
  tissue uptake at 24 h: 0.56 ± 0.07 %ID/g
muscle, 48 h p.i., n = 9, read-out: Muscle uptake
  tissue uptake at 48 h: 0.48 ± 0.14 %ID/g
pancreas, 4 h p.i., n = 4, read-out: Pancreas uptake
  tissue uptake at 4 h: 0.36 ± 0.07 %ID/g
pancreas, 24 h p.i., n = 4, read-out: Pancreas uptake
  tissue uptake at 24 h: 0.45 ± 0.05 %ID/g
pancreas, 48 h p.i., n = 9, read-out: Pancreas uptake
  tissue uptake at 48 h: 0.52 ± 0.25 %ID/g
skin, 4 h p.i., n = 4, read-out: Skin uptake
  tissue uptake at 4 h: 1.96 ± 0.5 %ID/g
skin, 24 h p.i., n = 4, read-out: Skin uptake
  tissue uptake at 24 h: 1.26 ± 0.36 %ID/g
skin, 48 h p.i., n = 9, read-out: Skin uptake
  tissue uptake at 48 h: 1 ± 0.34 %ID/g
Small intestines, 4 h p.i., n = 4, read-out: Sm. Intestines uptake
  tissue uptake at 4 h: 4.67 ± 0.66 %ID/g
Small intestines, 24 h p.i., n = 4, read-out: Sm. Intestines uptake
  tissue uptake at 24 h: 2.73 ± 0.28 %ID/g
Small intestines, 48 h p.i., n = 9, read-out: Sm. Intestines uptake
  tissue uptake at 48 h: 1.53 ± 0.21 %ID/g
spleen, 4 h p.i., n = 4, read-out: Spleen uptake
  tissue uptake at 4 h: 0.21 ± 0.08 %ID/g
spleen, 24 h p.i., n = 4, read-out: Spleen uptake
  tissue uptake at 24 h: 0.58 ± 0.03 %ID/g
spleen, 48 h p.i., n = 9, read-out: Spleen uptake
  tissue uptake at 48 h: 0.54 ± 0.12 %ID/g
stomach, 4 h p.i., n = 4, read-out: Stomach uptake
  tissue uptake at 4 h: 8.97 ± 0.76 %ID/g
stomach, 24 h p.i., n = 4, read-out: Stomach uptake
  tissue uptake at 24 h: 4.86 ± 0.56 %ID/g
stomach, 48 h p.i., n = 9, read-out: Stomach uptake
  tissue uptake at 48 h: 3 ± 0.56 %ID/g
urine, 4 h p.i., n = 4
  excreta dose per gram or mL at 4 h: 13 ± 2.4 %ID/g
urine, 24 h p.i., n = 4
  excreta dose per gram or mL at 24 h: 4.57 ± 0.87 %ID/g
urine, 48 h p.i., n = 7
  excreta dose per gram or mL at 48 h: 1.6 ± 0.47 %ID/g
